Experimental findings from the Human Domainome abundance scans (Beltran et al. 2025) are described below.

± gives the uncertainty stated by the source.

First the molecules themselves.
B1: Mineralocorticoid receptor, residues 600 to 675; numbered along this chain, P08235 (parent)
chain: SKICLVCGDEASGCHYGVVTCGSCKVFFKRAVEGQHNYLCAGRNDCIIDKIRRKNCPACRLQKCLQAGMNLGARKS

The variants in the data set derive from B1. Put plainly: abundance fitness (aPCA) (normalised: wild type 0, dead -1); higher = more abundant; growth selection in yeast, the domain comes from the species named. Conditions: Homo sapiens.
For C24Q, the abundance fitness is -1 ± 0.44. For C24V, the abundance fitness is -1.01 ± 0.13. With C24E the figure was -1.03 ± 0.19. Under C24H stands -0.67 ± 0.28; under K54Q, -0.071 ± 0.064.

Take K54F: the abundance fitness came out at 0 ± 0.05.

On to K54R, for which the abundance fitness is -0.083 ± 0.044. As for K54N, the abundance fitness was determined as 0.013 ± 0.046.

With K54T, the abundance fitness was 0.038 ± 0.039.

As to K54H, the abundance fitness is -0.118 ± 0.044. With K54A the figure was -0.039 ± 0.049. Under K54P stands -0.072 ± 0.046; under G34M, -0.098 ± 0.092; under G34E, -0.013 ± 0.089.

Regarding G34L, the abundance fitness is -0.131 ± 0.06. Take G34V: the abundance fitness is -0.102 ± 0.049. Turning to G34K, the abundance fitness was -0.104 ± 0.073. As for G34C, the abundance fitness was -0.151 ± 0.099. Under I48S stands -0.122 ± 0.032; under I48D, -0.107 ± 0.093. Turning to I48N, the abundance fitness was -0.015 ± 0.062. With I48Q the figure was -0.013 ± 0.049; with C14F, -0.146 ± 0.12.

Take C14T: the abundance fitness is -0.09 ± 0.05. With M69T the figure was -0.353 ± 0.068; with M69K, -0.261 ± 0.059.

For the variant M69H, the abundance fitness was -0.617 ± 0.14.

Take M69C: the abundance fitness is -0.128 ± 0.056.

As to M69N, the abundance fitness is -0.523 ± 0.12. In the case of P57G, the abundance fitness was -0.062 ± 0.065. With V6Y the figure was -0.489 ± 0.13. Turning to V6S, the abundance fitness was -0.512 ± 0.072. V6P: the abundance fitness is -0.704 ± 0.13. Regarding A41V, the abundance fitness is -0.053 ± 0.043. Under A41Y stands 0.001 ± 0.06; under A41T, -0.048 ± 0.045; under A41K, -0.149 ± 0.077.

For I51C, the abundance fitness was -0.051 ± 0.073. Under I51S stands 0.003 ± 0.042.

C4T: the abundance fitness is -0.837 ± 0.12. Under C4I stands -0.808 ± 0.2; under C4P, -0.986 ± 0.27; under C4F, -0.753 ± 0.26.

With L5Q, the abundance fitness is 0.05 ± 0.069.

Take L5F: the abundance fitness was -0.027 ± 0.075. Under L5A stands -0.05 ± 0.041; under L5C, -0.069 ± 0.057; under L5V, -0.209 ± 0.041. As to L5T, the abundance fitness is -0.037 ± 0.044. Under L5I stands -0.089 ± 0.08; under C56Y, -0.562 ± 0.26; under E10M, -0.177 ± 0.07. With E10Q the figure was 0.071 ± 0.054; with E10Y, -0.105 ± 0.071; with E10S, -0.03 ± 0.047. With E10I the figure was -0.188 ± 0.093; with E10V, -0.04 ± 0.044.

With S12W, the abundance fitness was -0.191 ± 0.12. With S12M the figure was 0.071 ± 0.074; with S12N, 0.205 ± 0.29; with S12Y, 0.096 ± 0.11. On to S12P, for which the abundance fitness was -0.008 ± 0.067. As to S12H, the abundance fitness is -0.117 ± 0.14. Under K2F stands -0.267 ± 0.18; under K2V, -0.142 ± 0.043. With K2S the figure was -0.161 ± 0.051; with K2D, -0.062 ± 0.063. With K2W the figure was -0.246 ± 0.063; with R30Y, -0.121 ± 0.32; with R30P, 0.293 ± 0.45. As for K63D, the abundance fitness was -0.318 ± 0.063. With K63G the figure was -0.104 ± 0.042; with K63E, -0.16 ± 0.064; with K63I, -0.101 ± 0.047.

Turning to K63Q, the abundance fitness is -0.134 ± 0.081. With K63P the figure was -0.754 ± 0.099; with R43N, -0.015 ± 0.036.

For R43D, the abundance fitness was -0.024 ± 0.043. C46P: the abundance fitness was -0.856 ± 0.13. With C46H the figure was -0.011 ± 0.044. Under C46W stands -0.856 ± 0.15; under N37R, 0.01 ± 0.03.

For N37I, the abundance fitness was -0.058 ± 0.058. With N37C the figure was -0.036 ± 0.049.

As to N37S, the abundance fitness is -0.043 ± 0.033. In the case of R53Y, the abundance fitness is -0.261 ± 0.28.

For R53G, the abundance fitness was -0.045 ± 0.043. With R53S the figure was -0.095 ± 0.057. Under R53N stands -0.075 ± 0.29; under I47T, 0.027 ± 0.049. Under I47G stands -0.096 ± 0.067.

For I47S, the abundance fitness stood at 0 ± 0.038. Under I47Q stands -0.024 ± 0.072; under I47K, 0.018 ± 0.11. With I47R the figure was 0.03 ± 0.049; with C7T, -0.999 ± 0.42.

For the variant C7A, the abundance fitness is -0.933 ± 0.2. With C7V the figure was -0.998 ± 0.26. With C7Y the figure was -0.805 ± 0.26. Under H15M stands -0.059 ± 0.055. Regarding H15F, the abundance fitness came out at 0.023 ± 0.1. Consider H15I, for which the abundance fitness is -0.131 ± 0.11. With H15R the figure was -0.136 ± 0.039; with H15E, -0.033 ± 0.059. Under H15L stands -0.096 ± 0.043; under G8C, -0.233 ± 0.084; under G8W, -0.27 ± 0.069. Under G8K stands -0.019 ± 0.11; under G8D, -0.085 ± 0.09; under G8V, -0.621 ± 0.078. Turning to G8A, the abundance fitness was determined as 0.058 ± 0.048. Take G8E: the abundance fitness was -0.075 ± 0.087.

G8Y: the abundance fitness is -0.248 ± 0.17. Under G22E stands -0.017 ± 0.055; under G22S, -0.058 ± 0.052.

For the variant G22P, the abundance fitness was -0.054 ± 0.066. With G22R the figure was -0.103 ± 0.037; with G22C, -0.178 ± 0.072. Under G22H stands -0.109 ± 0.12; under G22M, -0.035 ± 0.055. Under G22V stands -0.093 ± 0.041; under C64H, -0.821 ± 0.14; under C64D, -0.716 ± 0.097. As to C64V, the abundance fitness is -0.587 ± 0.057.

C64N: the abundance fitness was -0.886 ± 0.2. Under C64P stands -0.869 ± 0.11; under V18D, -0.155 ± 0.092.

With V18K, the abundance fitness is -0.101 ± 0.22. Consider V18T, for which the abundance fitness was -0.444 ± 0.5.

With V18R, the abundance fitness was -0.078 ± 0.048. V18Y: the abundance fitness is -0.284 ± 0.1. On to V18I, for which the abundance fitness stood at 0.045 ± 0.22. With G13Q the figure was 0.032 ± 0.053. With G13W the figure was -0.268 ± 0.065; with G13T, 0.016 ± 0.059. With G13K the figure was 0.019 ± 0.064; with G13Y, -0.259 ± 0.1. On to G13A, for which the abundance fitness was -0.111 ± 0.042. With G13N the figure was 0.043 ± 0.1. Under A58R stands -0.033 ± 0.036; under A58C, 0.05 ± 0.068; under A58V, -0.446 ± 0.056. Under A58D stands -0.085 ± 0.067. In the case of A58M, the abundance fitness was -0.141 ± 0.049. With A58W, the abundance fitness is -0.102 ± 0.052. With A58F the figure was -0.082 ± 0.08; with A58I, -0.827 ± 0.24. As for A58P, the abundance fitness is -0.117 ± 0.054.

On to N44T, for which the abundance fitness was -0.054 ± 0.052.

In the case of N44Y, the abundance fitness is -0.049 ± 0.088. For the variant N44W, the abundance fitness is -0.089 ± 0.041. For the variant A67M, the abundance fitness was found to be 0.055 ± 0.077. Take A67R: the abundance fitness was -0.053 ± 0.041. Take A67N: the abundance fitness was -0.084 ± 0.082. For A67K, the abundance fitness is -0.144 ± 0.065. With A67E the figure was 0.092 ± 0.066; with Y38V, 0.012 ± 0.046. Regarding Y38A, the abundance fitness is -0.027 ± 0.042.

As for Y38G, the abundance fitness was -0.164 ± 0.064. For Y38F, the abundance fitness is -0.027 ± 0.049. Under F27G stands -0.827 ± 0.097; under F27E, -0.961 ± 0.15; under F27P, -0.761 ± 0.14. In the case of F27R, the abundance fitness was -1.15 ± 0.17.

R52F: the abundance fitness was -0.14 ± 0.097. Under Q62G stands -0.028 ± 0.049; under Q62L, 0.012 ± 0.042.
